Experimental data from patent publication WO2021212049A2.

Biological target: recombinant SARS-CoV-2 S protein ectodomain (residues 14-1211), 2P, furin site mutated, foldon, 8XHis (SARS-CoV-2), P0DTC2
Assay: ELISA on coated antigen, anti-human IgG-HRP
Details: remark: other sources report otherwise

B1: mAb 2H04 (antibody)
chain 1: EVQLQQSGAELVKPGASVKMSCKASGYTFTSYWITWVKQRPGQGLEWIGDIYPGSGSTKYNEKFRSEATLTVDTSSTTAYMQLSSLTSEDSAVYYCARWDFYGSRTFDYWGQGTTLTVSS
chain 2: DIVLTQSPAILSVSPGERVSFSCRASQNIGTIIHWYQQRTNGSPRLLIKYASESVSGIPSRFSGSGSGTDFTLSINSVESEDIADYYCQQSSSWPLTFGAGTKLELK
B1 was tested, and the minimum positive concentration was < 5 µg/mL.
